Test system: differentiated cellular BBB model
Test: Study B: permeability of the nanobodies and conjugates through differentiated cellular BBB model (ELISA)
Format: in vitro ADME, rats
Settings: samples at 60 and 120 min, FIG. 7
Experimental: Cerebral microvessel endothelial cells prepared from 5-week-old male rats were seeded on microporous filters in order to: • evaluate the toxicity of the nanobodies and conjugates during their transfer by kinetic measurement of the sucrose transfer. • evaluate the permeability of the nanobodies and conjugates in the blood/brain direction. Experimental Conditions: • The endothelial cells were seeded on 28 Transwell Polycarbonate filters (porosity 0.4 μm and diameter 12 mm), and cultured in differentiation medium. • The measurement of toxicity (study A) or permeability (study B) of the nanobodies and conjugates was carried out in HBSS Ca/Mg medium supplemented with 0.1% BSA.
For study B, the medium collected at 60 min basolaterally was replaced by the same volume of fresh medium.
The samples collected at 60 and 120 min were analyzed by ELISA test to evaluate the quantity of nanobodies and conjugates which passed during study B. To be able to analyze the different samples by ELISA, it was necessary to first purify them to remove BSA limiting adhesion to 96-well plates of ELISA test. Thanks to the polyhistidine label present on the 3 nanobodies and conjugates, purifications on a 96-well plate coated with Nickel-NTA were carried out. […]
An absorbance reading was carried out at 450 nm after stopping the colorimetric reaction using a 1 N HCl solution. […]

B1: 2C5: anti-Tau nanobody (VHH, SEQ ID NO: 3) detecting pathological oligomeric forms of Tau protein (protein)
VHH: QVQLVQSGGGLVQAGGSLRLSCAASGRTFSSDTLAWFRQAPGKEREFVASISPSGGVTYYEDSVKGRFTISRDNSKNTVLLQMNSLTPEDTAVYYCNRDPKYGNTRYWGQGTQVTVSSAAA
passage through the BBB model (blood/brain direction): not passing this model

Reference: patent US12466854B2, “Peptide useful for the transport of molecules through cell barriers” (UNIVERSITÉ GRENOBLE ALPES, priority 2022, dated 2025)
